Assay in all cases: Calcium mobilization (FLIPR, Fluo-3) in transfected COS-7 cells
Common to all, as to assay type: cell-based

The target of one experiment is m 5HT5A (Mus musculus, UniProt P30966). As to conditions: m 5HT5A + chimera in COS-7; agonist 5HT, max 100 μM. On the procedure:
(§1) COS-7 cells were cultured in 225 cm^2 flasks in Dulbecco's Modified Eagle Medium (DMEM) with supplements (10% bovine calf serum, 4 mM glutamine, 100 units/ml penicillin and 100 μg/ml streptomycin) at 37° C., 5% CO2. Stock plates of COS-7 cells were trypsinized and split 1:6 every 3–4 days.
(§2) GPCR and chimeric G protein cDNAs were transiently transfected into COS-7 cells in 150 cm^2 flasks by the DEAE-dextran method (Cullen, 1987), using a total of 20 μg of DNA/˜7×10^6 cells. For evaluating the function of a single chimeric G protein, the standard cDNA transfection ratio was 1:1 (10 μg GPCR cDNA and 10 μg chimeric G protein cDNA). For evaluating the function of a mixture of chimeric G proteins, the standard cDNA transfection ratio was 8:1:1 (16 μg GPCR cDNA, 2 μg Gαq/z cDNA, 2 μg Gαq/s cDNA).
(§3) Twenty four hours after transient transfection, COS-7 cells were seeded into 96-well black wall microtiter plates coated with poly-D-lysine for assay the following day. Just prior to assay, culture medium was aspirated and cells were dye-loaded with 4 μM Fluo-3/0.01% pluronic acid in assay buffer composed of Hank's Balanced Salt Solution (138 mM NaCl, 5 mM KCl, 1.3 mM CaCl2, 0.5 mM MgCl2, 0.4 mM MgSO4, 0.3 mM KH2PO4, 0.3 mM Na2HPO4, 5.6 mM glucose) plus 20 mM HEPES (pH 7.4), 0.1% BSA and 2.5 mM probenicid (100 μl/well) for 1 hour in 5% CO2 at 37° C. After excess dye was discarded, cells were washed in assay buffer and layered with a final volume equal to 100 μl/well. Basal fluorescence was monitored in a fluorometric imaging plate reader (FLIPR™, Molecular Devices) with an excitation wavelength of 488 nm and an emission range of 500 to 560 nm. Laser excitation energy was adjusted so that basal fluorescence readings were approximately 10,000 relative fluorescent units. Cells were stimulated with agonists diluted in assay buffer (50 μl), and relative fluorescent units were measured at defined intervals (exposure=0.4 sec) over a 3 min period at room temperature. Maximum change in fluorescence was calculated for each well. Concentration-response curves derived from the maximum change in fluorescence were analyzed by nonlinear regression (Hill equation).

The target of the next experiment is h 5HT7 (Homo sapiens, UniProt P34969). As to conditions: h 5HT7 + chimera in COS-7; agonist 5HT, max 100 μM. On the procedure: as §1, §2, §3
In a further experiment the target is T1, h GALR2 (Homo sapiens, UniProt O43603).
T1 construct: expressed in transfected cells; host or cells: COS-7
T1 sequence (O43603 1-387): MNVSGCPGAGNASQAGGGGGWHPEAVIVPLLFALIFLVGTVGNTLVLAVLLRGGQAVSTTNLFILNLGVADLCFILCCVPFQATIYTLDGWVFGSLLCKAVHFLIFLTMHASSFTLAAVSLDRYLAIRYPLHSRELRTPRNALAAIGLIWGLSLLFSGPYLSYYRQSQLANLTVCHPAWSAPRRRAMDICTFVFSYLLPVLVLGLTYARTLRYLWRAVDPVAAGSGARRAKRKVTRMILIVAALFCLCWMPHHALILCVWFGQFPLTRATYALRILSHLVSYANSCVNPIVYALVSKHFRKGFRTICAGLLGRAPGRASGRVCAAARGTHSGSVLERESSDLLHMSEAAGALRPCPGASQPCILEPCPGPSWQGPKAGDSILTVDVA
The following applies: h GALR2 + chimera in COS-7; agonist GAL, max 10 μM. How it is done:
as §1, §2, §3

For another experiment, the target named is T2, h GALR1 (Homo sapiens, UniProt P47211).
T2 construct: expressed in transfected cells; host or cells: COS-7
T2 sequence (P47211 1-349): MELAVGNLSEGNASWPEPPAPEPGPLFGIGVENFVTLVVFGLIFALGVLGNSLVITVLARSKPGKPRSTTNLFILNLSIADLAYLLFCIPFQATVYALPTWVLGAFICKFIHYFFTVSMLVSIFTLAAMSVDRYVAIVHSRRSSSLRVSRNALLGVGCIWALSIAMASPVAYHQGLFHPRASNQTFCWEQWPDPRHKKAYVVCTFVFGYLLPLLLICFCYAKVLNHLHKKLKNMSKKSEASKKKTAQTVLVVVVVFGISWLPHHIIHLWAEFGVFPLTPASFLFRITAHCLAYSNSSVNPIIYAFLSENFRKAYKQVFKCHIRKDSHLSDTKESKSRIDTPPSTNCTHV
As to conditions: h GALR1 + chimera in COS-7; agonist GAL, max 10 μM. On the procedure: as §1, §2, §3

Another experiment concerns the target T3, h α1A adr (Homo sapiens, UniProt P35348).
T3 construct: expressed in transfected cells; host or cells: COS-7
T3 sequence (P35348 1-466): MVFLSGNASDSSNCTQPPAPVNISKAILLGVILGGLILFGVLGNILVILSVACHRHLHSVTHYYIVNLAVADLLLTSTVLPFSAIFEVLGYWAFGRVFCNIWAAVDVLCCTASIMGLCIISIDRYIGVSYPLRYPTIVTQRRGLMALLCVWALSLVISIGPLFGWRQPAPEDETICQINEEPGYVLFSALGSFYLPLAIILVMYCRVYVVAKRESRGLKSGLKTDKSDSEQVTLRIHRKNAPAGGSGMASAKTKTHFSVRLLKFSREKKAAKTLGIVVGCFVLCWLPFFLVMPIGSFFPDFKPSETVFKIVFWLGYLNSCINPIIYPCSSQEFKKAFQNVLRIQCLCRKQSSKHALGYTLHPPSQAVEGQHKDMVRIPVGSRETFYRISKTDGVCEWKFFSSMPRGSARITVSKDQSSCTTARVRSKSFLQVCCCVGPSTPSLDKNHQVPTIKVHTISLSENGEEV
As to conditions: h α1A adr + chimera in COS-7; agonist NE, max 100 μM. On the procedure:
as §1, §2, §3

A further experiment has as its target h GLP-1 (Homo sapiens, UniProt P43220). The following applies: h GLP-1 + chimera in COS-7; agonist GLP-1, max 10 μM. How it is done:
as §1, §2, §3

Changes are numbered by the printed parent chain.

Sequence of h 5HT7 (P34969 whole entry): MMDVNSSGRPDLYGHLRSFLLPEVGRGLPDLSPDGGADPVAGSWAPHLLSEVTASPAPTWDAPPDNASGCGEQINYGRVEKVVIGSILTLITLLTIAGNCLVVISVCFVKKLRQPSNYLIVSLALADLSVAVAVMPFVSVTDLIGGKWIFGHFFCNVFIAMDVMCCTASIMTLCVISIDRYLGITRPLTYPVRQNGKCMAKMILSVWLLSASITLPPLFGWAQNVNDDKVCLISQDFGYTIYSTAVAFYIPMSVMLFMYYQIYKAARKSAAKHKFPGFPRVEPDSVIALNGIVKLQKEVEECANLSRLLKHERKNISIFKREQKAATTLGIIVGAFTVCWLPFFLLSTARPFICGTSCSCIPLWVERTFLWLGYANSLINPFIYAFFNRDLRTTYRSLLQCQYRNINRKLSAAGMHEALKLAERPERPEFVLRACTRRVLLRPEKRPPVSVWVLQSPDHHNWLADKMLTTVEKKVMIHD
Sequence of m 5HT5A (P30966 whole entry): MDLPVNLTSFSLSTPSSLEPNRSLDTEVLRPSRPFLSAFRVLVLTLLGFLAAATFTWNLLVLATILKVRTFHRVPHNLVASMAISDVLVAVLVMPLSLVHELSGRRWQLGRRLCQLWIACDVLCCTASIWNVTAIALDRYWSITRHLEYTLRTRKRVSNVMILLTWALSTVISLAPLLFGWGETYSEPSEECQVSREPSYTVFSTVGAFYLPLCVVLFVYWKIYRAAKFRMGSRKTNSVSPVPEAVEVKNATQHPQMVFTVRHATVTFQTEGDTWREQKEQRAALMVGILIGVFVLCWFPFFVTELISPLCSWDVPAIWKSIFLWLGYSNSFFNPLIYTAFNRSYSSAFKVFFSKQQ
Sequence of h GLP-1 (P43220 24-463): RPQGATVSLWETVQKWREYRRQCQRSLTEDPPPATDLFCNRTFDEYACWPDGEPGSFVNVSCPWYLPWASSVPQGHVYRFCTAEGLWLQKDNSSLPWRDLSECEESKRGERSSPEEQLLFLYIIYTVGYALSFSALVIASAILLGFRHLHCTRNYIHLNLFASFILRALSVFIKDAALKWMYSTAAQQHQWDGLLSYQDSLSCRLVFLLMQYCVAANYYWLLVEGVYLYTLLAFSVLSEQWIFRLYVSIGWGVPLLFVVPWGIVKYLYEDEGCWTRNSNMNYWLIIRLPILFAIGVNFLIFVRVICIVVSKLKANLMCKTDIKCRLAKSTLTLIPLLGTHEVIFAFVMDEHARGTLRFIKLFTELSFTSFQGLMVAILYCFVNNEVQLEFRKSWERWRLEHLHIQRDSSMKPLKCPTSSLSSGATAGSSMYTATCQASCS

B1: cGαq/z5: chimeric Gα subunit: C-terminal final 5 amino acids of C. elegans Gαq replaced with those of hGαz (SEQ ID NO: 1) (protein)
chain: MACCLSEEAREQKRINQEIEKQLQRDKRNARRELKLLLLGTGESGKSTFIKQMRIIHGQGYSEEDKRAHIRLVYQNVFMAIQSMIRAMDTLDIKFGNESEELQEKAAVVREVDFESVTSFEEPYVSYIKELWEDSGIQECYDRRREYQLTDSAKYYLSDLRRLAVPDYLPTEQDILRVRVPTTGIIEYPFDLEQIIFRMVDVGGQRSERRKWIHCFENVTSIMFLVALSEYDQVLVECDNENRMEESKALFRTIITYPWFTNSSVILFLNKKDLLEEKILYSHLADYFPEYDGPPRDPIAAREFILKMFVDLNPDADKIIYSHFTCATDTENIRFVFAAVKDTILQHNLKYIGLC
modifications: C. elegans
Consider B1, for which the “MAXIMAL SIGNAL (FLUORESCENCE UNITS)” value in the experiment with m 5HT5A amounted to 351 fluorescence units; with h 5HT7, 166 fluorescence units; in the experiment with h GALR2, 5470 fluorescence units; in the experiment with h GALR1 it was 7648 fluorescence units; with h α1A adr it was 9816 fluorescence units; with h GLP-1, 131 fluorescence units.

B2: cGαq/z9: C. elegans Gαq with Gαz portion of the C-terminal tail extended to 9 amino acids (SEQ ID NO: 2) (protein)
chain: B1 chain with H347N
modifications: C. elegans
Consider B2, for which the “MAXIMAL SIGNAL (FLUORESCENCE UNITS)” value with m 5HT5A worked out at 270 fluorescence units; with h 5HT7 it was 129 fluorescence units; with h GALR2, 4899 fluorescence units; in the experiment with h GALR1 it was 8489 fluorescence units; with h α1A adr it was 6597 fluorescence units; with h GLP-1, 135 fluorescence units.

Source of the values: patent publication US7067277B1, “Chimeric G proteins and uses thereof” (H. Lundbeck A/S, priority 1999, dated 2006).
